Legend:
Test in all cases: ELISA; collagen model peptide or collagen XI coated; COMP or TSP-4 at indicated concentrations in TBS-T with 0.25% BSA, 1 h, room temperature; detected with anti-COMP or anti-TSP-4 antibody; four-parameter logistic fit; apparent KD
[1] = biological target: GVKGHR foldon collagen model peptide (minimal binding site) (not stated | bacteriophage T4)
[2] = biological target: … foldon collagen model peptide (histidine to proline) (not stated | bacteriophage T4)
[3] = biological target: … foldon collagen model peptide (valine to proline) (not stated | bacteriophage T4)

Chain of cartilage oligomeric matrix protein (COMP), wild type, pentameric (P49747 21-757): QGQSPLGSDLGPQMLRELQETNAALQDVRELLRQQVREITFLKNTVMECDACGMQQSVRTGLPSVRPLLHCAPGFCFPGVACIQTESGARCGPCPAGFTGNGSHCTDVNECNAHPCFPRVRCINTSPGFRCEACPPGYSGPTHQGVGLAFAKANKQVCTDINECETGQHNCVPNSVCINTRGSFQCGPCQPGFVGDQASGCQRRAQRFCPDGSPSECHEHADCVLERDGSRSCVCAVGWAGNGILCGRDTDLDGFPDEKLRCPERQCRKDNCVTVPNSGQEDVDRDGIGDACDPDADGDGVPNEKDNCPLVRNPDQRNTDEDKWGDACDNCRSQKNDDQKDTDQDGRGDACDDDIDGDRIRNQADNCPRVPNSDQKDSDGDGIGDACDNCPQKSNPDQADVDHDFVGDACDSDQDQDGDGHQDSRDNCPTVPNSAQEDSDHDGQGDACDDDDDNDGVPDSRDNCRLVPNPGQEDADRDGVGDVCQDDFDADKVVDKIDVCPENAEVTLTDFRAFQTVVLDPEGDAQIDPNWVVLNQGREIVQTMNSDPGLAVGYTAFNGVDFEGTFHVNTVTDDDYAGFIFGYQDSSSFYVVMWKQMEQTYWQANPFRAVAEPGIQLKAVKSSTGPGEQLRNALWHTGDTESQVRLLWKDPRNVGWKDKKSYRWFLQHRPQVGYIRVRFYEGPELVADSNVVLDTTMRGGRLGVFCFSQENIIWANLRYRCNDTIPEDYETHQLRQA
Chain of thrombospondin-4 (TSP-4) (P35443 27-961): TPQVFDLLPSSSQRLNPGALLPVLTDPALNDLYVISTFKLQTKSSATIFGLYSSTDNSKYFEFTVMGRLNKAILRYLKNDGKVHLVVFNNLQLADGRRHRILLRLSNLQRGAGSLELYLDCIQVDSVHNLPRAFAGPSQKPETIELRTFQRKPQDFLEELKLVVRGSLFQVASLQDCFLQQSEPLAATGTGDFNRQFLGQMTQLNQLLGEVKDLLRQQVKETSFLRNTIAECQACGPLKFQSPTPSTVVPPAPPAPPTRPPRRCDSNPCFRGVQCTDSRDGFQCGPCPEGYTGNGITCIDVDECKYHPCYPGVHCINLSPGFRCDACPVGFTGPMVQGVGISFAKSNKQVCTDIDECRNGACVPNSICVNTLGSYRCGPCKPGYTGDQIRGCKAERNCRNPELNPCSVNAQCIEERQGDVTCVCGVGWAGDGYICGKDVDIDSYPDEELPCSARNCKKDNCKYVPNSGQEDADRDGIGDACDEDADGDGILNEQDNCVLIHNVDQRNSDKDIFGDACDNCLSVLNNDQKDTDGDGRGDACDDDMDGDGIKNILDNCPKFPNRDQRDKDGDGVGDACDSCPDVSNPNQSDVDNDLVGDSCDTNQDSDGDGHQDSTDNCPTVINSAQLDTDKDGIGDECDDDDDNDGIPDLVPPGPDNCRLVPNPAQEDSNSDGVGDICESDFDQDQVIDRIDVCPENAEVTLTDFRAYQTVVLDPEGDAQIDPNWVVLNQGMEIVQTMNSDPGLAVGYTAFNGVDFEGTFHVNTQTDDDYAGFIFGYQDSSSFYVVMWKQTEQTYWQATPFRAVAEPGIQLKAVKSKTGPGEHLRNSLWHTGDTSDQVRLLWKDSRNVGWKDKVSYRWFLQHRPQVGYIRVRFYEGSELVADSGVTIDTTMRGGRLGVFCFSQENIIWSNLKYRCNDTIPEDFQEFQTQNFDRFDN

Row | Substance | Kd [1] | Kd [2] | Kd [3]
1 | thrombospondin-4 (TSP-4) (from UniProt P35443 27-961) (natural protein) | 0.56 nM |  | 
2 | cartilage oligomeric matrix protein (COMP), wild type, pentameric (from UniProt P49747 21-757) (natural protein) | 1.61 nM | 496 nM | 2.26 nM
